{
  "source": "patent US20050249719",
  "proteins": {"B1": {"name": "human tissue transglutaminase (protein)", "chain": "AEELVLERCDLELETNGRDHHTADLCREKLVVRRGQPFWLTLHFEGRNYEASVDSLTFSVVTGPAPSQEAGTKARFPLRDAVEEGDWTATVVDQQDCTLSLQLTTPANAPIGLYRLSLEASTGYQGSSFVLGHFILLFNAWCPADAVYLDSEEERQEYVLTQQGFIYQGSAKFIKNIPWNFGQFEDGILDICLILLDVNPKFLKNAGRDCSRRSSPVYVGRVVSGMVNCNDDQGVLLGRWDNNYGDGVSPMSWIGSVDILRRWKNHGCQRVKYGQCWVFAAVACTVLRCLGIPTRVVTNYNSAHDQNSNLLIEYFRNEFGEIQGDKSEMIWNFHCWVESWMTRPDLQPGYEGWQALDPTPQEKSEGTYCCGPVPVRAIKEGDLSTKYDAPFVFAEVNADVVDWIQQDDGSVHKSINRSLIVGLKISTKSVGRDEREDITHTYKYPEGSSEEREAFTRANHLNKLAEKEETGMAMRIRVGQSMNMGSDFDVFAHITNNTAEEYVCRLLLCARTVSYNGILGPECGTKYLLNLNLEPFSEKSVPLCILYEKYRDCLTESNLIKVRALLVEPVINSYLLAERDLYLENPEIKIRILGEPKQKRKLVAEVSLQNPLPVALEGCTFTVEGAGLTEEQKTVEIPDPVEAGEEVKVRMDLLPLHMGLHKLVVNFESDKLKAVKGFRNVIIGPA"}, "B2": {"name": "Flavobacterium meningosepticum prolyl endopeptidase (recombinant, expressed in E. coli) (protein)", "chain": "QNSNVLKYPETKKVSHTDTYFGTQVSDPYRWLEDDRAEDTKAWVQQEVKFTQDYLAQIPFRDQLKKQLMDIWNYEKISAPFKKGKYTYFSKNDGLQAQSVLYRKDAAGKTEVFLDPNKFSEKGTTSLASVSFNKKGTLVAYSISEGGSDWNKIIILDAETKKQLDETLLDVKFSGISWLGDEGFFYSSYDKPKEGSVLSGMTDKHKVYFHKLGTKQSQDELIIGGDKFPRRYIGAYVTDDQRYLVVSAANATNGNELYIKDLKNKTDFIPIITGFDSNVNVADTDGDTLYLFTDKDAPNKRLVKTTIQNPKAETWKDVIAETSEPLEINTGGGYFFATYMKDAIDQVKQYDKNGKLVRAIKLPGSGNASGFGGEKTEKDLYYSFTNYITPPTIFKYNVTTGNSEVYQKPKVKFNPENYVSEQVFYTSSDGTKIPMMISYKKGLKKDGKNPTILYSYGGFNISLQPAFSVVNAIWMENGGIYAVPNIRGGGEYGKKWHDAGTKMQKKNVFNDFIAAGEYLQKNGYTSKEYMALSGRSNGGLLVGATMTMRPDLAKVAFPGVGVLDMLRYNKFTAGAGWAYDYGTAEDSKEMFEYLKSYSPVHNVKAGTCYPSTMVITSDHDDRVVPAHSFKFGSELQAKQSCKNPILIRIETNAGHGAGRSTEQVVAENADLLSFALYEMGIKSLK"}},
  "key": {"[1]": {"molecular_target": "T1, 33-mer gliadin peptide LQLQPFPQPQLPYPQPQLPYPQPQLPYPQPQPF", "T1 chain": "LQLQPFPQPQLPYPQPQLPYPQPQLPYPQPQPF"}, "[2]": {"molecular_target": "T2, gliadin peptide PQPQLPYPQPQLP", "T2 chain": "PQPQLPYPQPQLP"}},
  "data": [
    {"protein": "B1", "values": [
      {"measurement": "kcat/KM of deamidation", "setting": "[1]", "value": "kcat/KM=440 min-1 mM-1"}
    ]},
    {"protein": "B2", "values": [
      {"measurement": "Kcat/KM", "setting": "[2]", "value": 178, "unit": "mM^-1/s^-1"},
      {"measurement": "competitive proteolysis of the 13-mer and the 33-mer", "setting": "[2]", "value": "showed comparable selectivity for both peptides"},
      {"measurement": "competitive proteolysis of the 13-mer and the 33-mer", "setting": "[1]", "value": "showed comparable selectivity for both peptides"},
      {"measurement": "initial rate on the 33-mer, fold against MX PEP", "setting": "[1]", "value": "5-fold faster on the 33-mer than the MX PEP"},
      {"measurement": "initial rate on the 33-mer, fold against SC PEP", "setting": "[1]", "value": ">20 fold faster than the SC PEP"},
      {"measurement": "rate of substrate (33-mer+32-mer) disappearance", "setting": "[1]", "value": "2.3 µM/min (FM PEP)"},
      {"measurement": "time to hydrolyze 10 µM of the 33-mer with 0.1 µM enzyme", "setting": "[1]", "value": "in about 2-3 minutes"}
    ]}
  ]
}
